Earlier results on one substance are cited in publication PMC4264850.

The series has as its target EGFR (Homo sapiens) (UniProt P00533).

With matuzumab, the Kd was 340 pM.

The term Kd denotes the constant that tells how readily two partners part at equilibrium.
